91 variants from IntAct's records for PubMed 29039417 can be followed below.

Sequences and labels used below:
B1: Protein PTHB1 (Homo sapiens), Q3SYG4 (parent)
chain: MSLFKARDWWSTILGDKEEFDQGCLCLANVDNSGNGQDKIIVGSFMGYLRIFSPHPAKTGDGAQAEDLLLEVDLRDPVLQVEVGKFVSGTEMLHLAVLHSRKLCVYSVSGTLGNVEHGNQCQMKLMYEHNLQRTACNMTYGSFGGVKGRDLICIQSMDGMLMVFEQESYAFGRFLPGFLLPGPLAYSSRTDSFLTVSSCQQVESYKYQVLAFATDADKRQETEQQKLGSGKRLVVDWTLNIGEQALDICIVSFNQSASSVFVLGERNFFCLKDNGQIRFMKKLDWSPSCFLPYCSVSEGTINTLIGNHNNMLHIYQDVTLKWATQLPHIPVAVRVGCLHDLKGVIVTLSDDGHLQCSYLGTDPSLFQAPNVQSRELNYDELDVEMKELQKIIKDVNKSQGVWPMTEREDDLNVSVVVSPNFDSVSQATDVEVGTDLVPSVTVKVTLQNRVILQKAKLSVYVQPPLELTCDQFTFEFMTPDLTRTVSFSVYLKRSYTPSELEGNAVVSYSRPTDRNPDGIPRVIQCKFRLPLKLICLPGQPSKTASHKITIDTNKSPVSLLSLFPGFASQSDDDQVNVMGFHFLGGARITVLASKTSQRYRIQSEQFEDLWLITNELILRLQEYFEKQGVKDFACSFSGSIPLQEYFELIDHHFELRINGEKLEELLSERAVQFRAIQRRLLARFKDKTPAPLQHLDTLLDGTYKQVIALADAVEENQGNLFQSFTRLKSATHLVILLIALWQKLSADQVAILEAAFLPLQEDTQELGWEETVDAAISHLLKTCLSKSSKEQALNLNSQLNIPKDTSQLKKHITLLCDRLSKGGRLCLSTDAAAPQTMVMPGGCTTIPESDLEERSVEQDSTELFTNHRHLTAETPRPEVSPLQGVSE
partner: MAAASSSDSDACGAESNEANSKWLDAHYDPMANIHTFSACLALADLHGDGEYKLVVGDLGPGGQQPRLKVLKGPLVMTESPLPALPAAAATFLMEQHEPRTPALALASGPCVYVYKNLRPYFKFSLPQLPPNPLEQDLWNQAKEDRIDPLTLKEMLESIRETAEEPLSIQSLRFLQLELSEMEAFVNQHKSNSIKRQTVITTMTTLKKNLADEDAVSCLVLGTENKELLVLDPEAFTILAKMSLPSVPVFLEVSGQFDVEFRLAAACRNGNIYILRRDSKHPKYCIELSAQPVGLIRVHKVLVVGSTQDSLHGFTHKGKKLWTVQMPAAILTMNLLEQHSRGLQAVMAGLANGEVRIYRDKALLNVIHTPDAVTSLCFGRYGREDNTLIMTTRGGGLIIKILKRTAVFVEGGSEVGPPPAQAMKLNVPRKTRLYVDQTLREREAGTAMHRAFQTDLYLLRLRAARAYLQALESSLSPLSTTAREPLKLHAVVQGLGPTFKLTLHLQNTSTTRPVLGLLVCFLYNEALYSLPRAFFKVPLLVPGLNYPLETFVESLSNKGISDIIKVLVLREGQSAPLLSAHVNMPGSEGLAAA

Variants of B1 are the subject of this assay. The conditions noted are these: with bbs1_human BBS1, Q8NFJ9.
Consider K492E, for which the “effect of a mutation on the interaction” value was “with no effect”.
Regarding E607A, the “effect of a mutation on the interaction” value is recorded as “with no effect”.
As for L665E, the “effect of a mutation on the interaction” value is on record as “with no effect”.
The result for P438E reads “with no effect”.
The same measure for L481A: “with no effect”; for L692A: “with no effect”.
The result for G823E reads “with no effect”.
As for L616K, the “effect of a mutation on the interaction” value is recorded as “with no effect”.
The result for Y508A reads “with no effect”; that for F636E, “with no effect”.
In the case of D429K, the “effect of a mutation on the interaction” value is “with no effect”.
Consider Q791L, for which the “effect of a mutation on the interaction” value was “disrupting interaction strength”.
Turning to L766K, the “effect of a mutation on the interaction” value was “with no effect”.
As to T697K, the “effect of a mutation on the interaction” value is reported as “with no effect”.
As for F684K, the “effect of a mutation on the interaction” value is reported as “with no effect”.
As to V444A, the “effect of a mutation on the interaction” value is recorded as “with no effect”.
Consider D571A, for which the “effect of a mutation on the interaction” value was “with no effect”.
Take N866E: the “effect of a mutation on the interaction” value is on record as “with no effect”.
The same measure for F864E: “with no effect”.
Turning to Y460E, the “effect of a mutation on the interaction” value is listed as “with no effect”.
In the case of A872E, the “effect of a mutation on the interaction” value is “with no effect”.
On to A872K, for which the “effect of a mutation on the interaction” value was “with no effect”.
Consider D773E, for which the “effect of a mutation on the interaction” value is listed as “with no effect”.
As for K443E, the “effect of a mutation on the interaction” value is listed as “with no effect”.
Consider F606E, for which the “effect of a mutation on the interaction” value is recorded as “with no effect”.
Take Q717K: the “effect of a mutation on the interaction” value is reported as “with no effect”.
For the variant Q717A, the “effect of a mutation on the interaction” value is recorded as “with no effect”.
The same measure for Q748K: “with no effect”; for S414E: “with no effect”.
The same measure for R868E: “with no effect”.
The result for S570E reads “with no effect”; that for F580K, “with no effect”; that for S860E, “with no effect”.
Turning to F527A, the “effect of a mutation on the interaction” value is “with no effect”.
With V629A, the “effect of a mutation on the interaction” value is recorded as “with no effect”.
The same measure for Q672K: “with no effect”.
The result for L779A reads “with no effect”; that for I534E, “with no effect”; that for C535K, “with no effect”.
The result for Y703A reads “with no effect”; that for N412E, “with no effect”.
Take P463E: the “effect of a mutation on the interaction” value is given as “with no effect”.
The same measure for T871E: “with no effect”; for H732E: “with no effect”; for V749A: “with no effect”.
The same measure for K661A: “with no effect”.
The result for L533A reads “with no effect”; that for P691L, “disrupting interaction strength”; that for P691K, “with no effect”.
As for L666A, the “effect of a mutation on the interaction” value was “with no effect”.
The result for L863A reads “with no effect”.
W610K: the “effect of a mutation on the interaction” value is reported as “with no effect”.
The same measure for K554E: “with no effect”; for E604K: “with no effect”.
In the case of T861E, the “effect of a mutation on the interaction” value is recorded as “with no effect”.
Consider S603E, for which the “effect of a mutation on the interaction” value is listed as “with no effect”.
With E714K, the “effect of a mutation on the interaction” value is reported as “with no effect”.
The same measure for Q742A: “with no effect”; for Q742K: “with no effect”.
In the case of A708K, the “effect of a mutation on the interaction” value was “with no effect”.
On to T484E, for which the “effect of a mutation on the interaction” value is given as “with no effect”.
For Q807E, the “effect of a mutation on the interaction” value was “with no effect”.
R674E: the “effect of a mutation on the interaction” value is given as “with no effect”.
The same measure for F673A: “with no effect”; for D517K: “with no effect”.
For V440A, the “effect of a mutation on the interaction” value is “with no effect”.
As for F653K, the “effect of a mutation on the interaction” value is on record as “with no effect”.
The result for V671K reads “with no effect”.
As to R824K, the “effect of a mutation on the interaction” value is “with no effect”.
The result for R824E reads “with no effect”; that for S667A, “with no effect”; that for S667F, “disrupting interaction strength”.
The same measure for T613K: “with no effect”.
For Q722K, the “effect of a mutation on the interaction” value was “with no effect”.
With K542A, the “effect of a mutation on the interaction” value is “with no effect”.
The result for P479A reads “with no effect”.
Consider P479E, for which the “effect of a mutation on the interaction” value was “with no effect”.
The result for R656A reads “with no effect”.
The result for M477K reads “with no effect”; that for S439E, “with no effect”.
In the case of E790K, the “effect of a mutation on the interaction” value is “with no effect”.
For the variant P881E, the “effect of a mutation on the interaction” value is listed as “with no effect”.
The result for P520E reads “with no effect”; that for I657K, “with no effect”; that for H652A, “with no effect”.
The result for R679E reads “with no effect”; that for R493K, “with no effect”.
The result for N576A reads “with no effect”.
As for Q705M, the “effect of a mutation on the interaction” value was “disrupting interaction strength”.
As for Q705A, the “effect of a mutation on the interaction” value is recorded as “with no effect”.
The same measure for S729A: “with no effect”.
